Assay results from article PMC7617963 (Current biology : CB, 2024).

Molecular target: the molecule itself
Test: cross-linking; BS3 cross-linker mixed 1:1 (w/w) with protein at 1 mg/ml, 30 minutes at room temperature, quenched with 200 mM ammonium bicarbonate, resolved by SDS-PAGE

B1: CENP-E_(2452-2598) (domain or fragment, human, UniProt Q02224-1 2452-2598, looked up)
chain: PYKEEIEDLKMKLVKIDLEKMKNAKEFEKEISATKATVEYQKEVIRLLRENLRRSQQAQDTSVISEHTDPQPSNKPLTCGGGSGIVQNTKALILKSEHIRLEKEISKLKQQNEQLIKQKNELLSNNQHLSNEVKTWKERTLKREAHK
notes: CENP-E (centromere-associated protein E), residues 2452-2598; cell constructs were generated from CENP-E transcript variant 1 (NM_001813.2); cloned into pET3aTr for expression; The purification says that the His tag was cleaved with 3C protease, yet the crystallisation and cross-linking methods call the protein His6-CENP-E_(2452-2598); also called His6-CENP-E_(2452-2598); minimal corona-targeting …
Question: How did the “stoichiometry N” value turn out when B1 was run?
Answer: 2
